Patent publication US20220002700A1, “COMPUTATIONALLY-OPTIMIZED ACE2 PEPTIDES FOR COMPETITIVE INTERCEPTION OF SARS-CoV-2” (priority 2020, published 2022)

System: viruses pseudotyped with the SARS-CoV-2 S protein
Format: cell-based

B1: 23-mer (A2N)-CHIPΔTPR fusion (protein)
chain: QNKTFLDKFNHEAEDLFYQSSLAMRLNFGDDIPSALRIAKKKRWNSIEERRIHQESELHSYLSRLIAAERERELEECQRNHEGDEDDSHVRAQQACIEAKHDKYMADMDELFSQVDEKRKKRDIPDYLCGKISFELMREPCITPSGITYDRKDIEEHLQRVGHFDPVTRSPLTQEQLIPNLAMKEVIDAFISENGWVEDY
Question: How did the “reduction of the infection rate of the pseudovirus” value turn out when B1 was run?
Answer: ~60%
